# Source: patent US20130171217A1, “ENZYMATIC PERACID GENERATION FOR USE IN SKIN CARE PRODUCTS” (E I DU PONT DE NEMOURS AND COMPANY, priority 2010, published 2013)
# B1: SEQ ID NO: 341: C277S variant of Thermotoga maritima perhydrolase fused to hair binding domain HC263KtoR via a flexible linker (protein)
# chain: MAFFDLPLEELKKYRPERYEEKDFDEFWEETLAESEKFPLDPVFERMESHLKTVEAYDVTFSGYRGQRIKGWLLVPKLEEEKLPCVVQYIGYNGGRGFPHDWLFWPSMGYICFVMDTRGQGSGWLKGDTPDYPEGPVDPQYPGFMTRGILDPRTYYYRRVFTDAVRAVEAAASFPQVDQERIVIAGGSQGGGIALAVSALSKKAKALLCDVPFLCHFRRAVQLVDTHPYAEITNFLKTHRDKEEIVFRTLSYFDGVNFAARAKIPALFSVGLMDNISPPSTVFAAYNYYAGPKEIRIYPYNNHEGGGSFQAVEQVKFLKKLFEKGGPGSGGAGSPGSAGGPGSPSAQSQLPDRHSGLHERAPQRYGPEPEPEPEPIPEPPREAPVVIERPRPRPRPRPRPPAHDHRNQRETHQRHAAGSGGGGSPHHHHHH
# B2: CPAH-HC263: fusion peptide C277S-HC263 further comprising a D128G substitution (protein)
# chain: MAFFDLPLEELKKYRPERYEEKDFDEFWEETLAESEKFPLDPVFERMESHLKTVEAYDVTFSGYRGQRIKGWLLVPKLEEEKLPCVVQYIGYNGGRGFPHDWLFWPSMGYICFVMDTRGQGSGWLKGGTPDYPEGPVDPQYPGFMTRGILDPRTYYYRRVFTDAVRAVEAAASFPQVDQERIVIAGGSQGGGIALAVSALSKKAKALLCDVPFLCHFRRAVQLVDTHPYAEITNFLKTHRDKEEIVFRTLSYFDGVNFAARAKIPALFSVGLMDNISPPSTVFAAYNYYAGPKEIRIYPYNNHEGGGSFQAVEQVKFLKKLFEKGGPGSGGAGSPGSAGGPGSPSAQSQLPDKHSGLHERAPQRYGPEPEPEPEPIPEPPKEAPVVIEKPKPKPKPKPKPPAHDHKNQKETHQRHAAGSGGGGSPHHHHHH
# B3: SEQ ID NO: 314: untargeted S54V variant of the aryl esterase from Mycobacterium smegmatis (protein, listed as Mycobacterium smegmatis)
# chain: MAKRILCFGDSLTWGWVPVEDGAPTERFAPDVRWTGVLAQQLGADFEVIEEGLVARTTNIDDPTDPRLNGASYLPSCLATHLPLDLVIIMLGTNDTKAYFRRTPLDIALGMSVLVTQVLTSAGGVGTTYPAPKVLVVSPPPLAPMPHPWFQLIFEGGEQKTTELARVYSALASFMKVPFFDAGSVISTDGVDGIHFTEANNRDLGVALAEQVRSLL
# B4: C277S-HC1010: C277S variant of Thermotoga maritima perhydrolase fused via a flexible linker to hair-binding domain HC1010 (protein)
# chain: MAFFDLPLEELKKYRPERYEEKDFDEFWEETLAESEKFPLDPVFERMESHLKTVEAYDVTFSGYRGQRIKGWLLVPKLEEEKLPCVVQYIGYNGGRGFPHDWLFWPSMGYICFVMDTRGQGSGWLKGDTPDYPEGPVDPQYPGFMTRGILDPRTYYYRRVFTDAVRAVEAAASFPQVDQERIVIAGGSQGGGIALAVSALSKKAKALLCDVPFLCHFRRAVQLVDTHPYAEITNFLKTHRDKEEIVFRTLSYFDGVNFAARAKIPALFSVGLMDNISPPSTVFAAYNYYAGPKEIRIYPYNNHEGGGSFQAVEQVKFLKKLFEKGGPGSGGAGSPGSAGGPGSAQSQLPDKHSGLHERAPQRYGSGTAEIQSSKNPNPHPQRSWTNGSGHNHMQERYTDPQHSPSVNGLGSGHDHKNQKETHQRHAASSHHHHHH
# Columns and labels:
# [1] = Perhydrolase activity remaining bound to hair, ABTS assay; assay type: binding, human; conditions: 50 μg/mL
# Protocol: Ten mg of human hair was submerged in 2 mL of a binding solution containing 50 μg/mL of the Thermotoga maritima perhydrolase targeted to hair via the hair binding peptide HC263 (C277S-HC263; SEQ ID NO: 288; also referred to herein as “HC1121”) in 50 mM pH 7.2 potassium phosphate buffer containing 5% of the test surfactant. The test surfactants were two nonionic surfactants: TWEEN®-20 (Sigma, St Louis, Mo.), and TRITON®-X 100 (Aldrich, St Louis, Mo.), and two ionic surfactants: CHEMBETAINE™ CAD (Cocamidopropyl betaine; Lubrizol, Wickliffe, Ohio) and RHODAPEX® ES-2K (sodium laurel ether sulfate; Rhodia Novecare, Cranbury, N.J.).
# Hair was incubated in the binding solution at room temperature (˜22° C.) with gentle agitation for 30 minutes, at which time the solution was removed by aspiration and the hair rinsed with 1% TWEEN®-20 in 50 mM pH 7.2 potassium phosphate buffer. The hair was removed from the tube, blotted dry with paper towel, and transferred to a new set of tubes. The hair was rinsed once with 1% TWEEN®-20 in 50 mM pH 7.2 potassium phosphate buffer and then rinsed three times with 50 mM pH 7.2 potassium phosphate buffer. Perhydrolase activity remaining bound to the hair was determined by the ABTS assay.
# The ABTS assay was performed as follows: hair samples treated as described above were transferred to new 2-mL microcentrifuge tubes (Eppendorf Protein LoBind; Eppendorf North America, Hauppauge, N.Y.) To each tube was added 480 μL of PAH buffer (50 mM potassium phosphate, pH 7.2), 14 μL of 39% hydrogen peroxide (Sigma 3410), and 6 μL triacetin (Sigma-Aldrich W200700). The perhydrolase reaction was allowed to proceed for 10 minutes at room temperature (˜22-25° C.). The reaction was stopped by diluting aliquots 10×, 100× and 1000× with 10 mM phosphoric acid. For detection 50 μL of 1 M acetic acid, 50 μL of 40 mg/mL potassium iodide, and 50 μL of 4 mM ABTS (2,2′-azino-bis(3-ethylbenzthiazoline-6-sulphonic acid; Sigma, St Louis, Mo.) were added to 50 μL of the above dilutions. Color was allowed to develop for 10 minutes and read in a spectrophotometer at 405 nm. Values from no-enzyme controls were subtracted to yield values attributable only to enzyme activity. A standard curve of OD 405 nm vs PAA concentration in ppm yielded a conversion factor of 8.75, such that an OD 405 nm of 1.0 corresponded to approximately 8.75 ppm PAA. This value was then multiplied by the appropriate dilution to arrive at the PAA concentration in the perhydrolase reaction.
# The Thermotoga maritima perhydrolase targeted to hair via the hair binding peptide HC263 (C277S-HC263; SEQ ID NO: 288) was diluted to 50 μg/mL in a solution of 5% PEG-80 sorbitan laurate in 100 mM citrate-phosphate buffer adjusted to pH 4.9, pH 5.5, pH 6.0, or pH 7.0. Ten mg of human hair was added to 2 mL of the above formulations and incubated with gentle agitation for 5 minutes at room temperature to allow enzyme binding to hair. A no-enzyme control sample was included with each pH. After binding, the binding solution was removed by aspiration and the hair was washed with 2 mL of 1% TWEEN®-20 in 50 mM pH 7.2 potassium phosphate buffer. The hair was removed from the tube, blotted dry with paper towel, and transferred to a new set of tubes. The hair was rinsed once with 1% TWEEN®-20 in 50 mM pH 7.2 potassium phosphate buffer and then rinsed three time with 50 mM pH 7.2 potassium phosphate buffer. Perhydrolase activity remaining bound to the hair was determined by the ABTS assay. The results are given as ppm PAA produced at 10 minutes (after subtraction of the no-enzyme control values)
# The Thermotoga maritima perhydrolase targeted to hair via the hair binding peptide HC263 (C277S-HC263; SEQ ID NO: 288) was diluted to 50 μg/mL in a solution of 5% PEG-80 sorbitan laurate in 100 mM citrate-phosphate buffer adjusted to pH 6.0. […]
# [2] = Single fiber tensile strength and bleaching start after two-step enzymatic application; conditions: two-step with buffer rinse
# Protocol: Hair samples were cut into pieces 4-inches in length. The denier number (liner mass density) of each hair fiber was measured by Textechno Vibromat Instrument (Textechno Herbert Stein GmbH & Co. KG; Germany). The hair fibers were tested according to ASTM D 3822-01 (“Tensile Properties of Single Textile Fibers”; ASTM International, West Conshohocken, Pa., 2001), on an Instron testing system (Instron Model 1122 Tester; Instron, Mass.) at about 70° F. (approximately 21° C.) and 65% relative humidity. The treated area of the hair sample was placed in the middle of the gauge and both ends were gripped on the test heads. Both fiber ends were attached on a piece of tape, respectively, for easy handling and gripping on the test heads. The test used 2-inch (5.1 cm) gauge length, […], and 1.2 inch/min (3 cm/min) pulling rate. The force-strain curve of the fiber was recorded during the test. The tenacity at maximum (gf/den) was calculated by dividing maximum force (gf) by denier number (den). Note that (gf/den)/11.33=Newtons/tex (N/tex).
# In a two-step application, the hair strands are first treated with perhydrolase solutions to allow the enzyme to bind hair. The hair strands are then dried or rinsed with buffer and dried. The rinse step is intended to remove excess unbound enzyme from the hair. The hair strands are soaked in triacetin and H2O2 solutions. The application is repeated for multiple times.
# One experiment was carried out with C277S-HC263 and untargeted T. maritima variant C277S using the following protocol: • 1. Enzyme solutions comprising 0.5 mg/mL enzyme in 50 mM phosphate buffer (pH 8) were made with or without 10 wt % urea. • 2. Seven (7) hair strands were soaked in 0.2 mL of an enzyme solution for 10 min and then dried under N2 without prior rinsing. • 3. The hair strands were then soaked in 0.2 mL of a pH 8 solution containing 100-mM triacetin and 250-mM H2O2 for 15 min, dried, then rinsed with DI water and then dried again. • 4. Steps 2-3 were repeated up to 15 times.
# Another experiment was carried out with C277S-HC263 (SEQ ID NO: 288), CPAH-HC263 (SEQ ID NO: 294), CPAH-HC1010 (SEQ ID NO: 295) and untargeted C277S using the following protocol: • 1. Enzyme solutions comprising 1.0 mg/mL enzyme in 50 mM phosphate buffer (pH 6) were prepared. For solutions containing two enzymes, the concentration of each enzyme was approximately 0.5 mg/mL. • 2. Seven (7) hair strands were soaked in 0.2 mL of an enzyme solution for 10 min, rinsed with 50 mM phosphate buffer (pH 6), and then dried under N2. • 3. The dried hair strands were then soaked into 0.2 mL of 50 mM phosphate buffer solution (pH 8) comprising 100 mM triacetin and 250 mM H2O2 for 15 min, dried, then rinsed with DI water and then dried again. • 4.
# [3] = Retention of perhydrolase on hair detected by hydrolase activity; assay type: binding
# Protocol: For hair binding experiments brown hair tresses (International Hair Importers and Products, Glensdale N.Y.) were used. The hair was washed with 2% SLES, rinsed extensively with deionized water and air dried.
# Around 20 mg of 1 cm brown hair fragments was added in a 1.8-mL microfuge tube. Hydrolase assay buffer (1.2 mL) as added to the hair followed by the addition of the perhydrolase enzymes to the solution. The enzymes were allowed to bind the hair for 30 min with gentle agitation (24 rpm) on an Adams Nutator (model 1105, Becton Dickinson, Franklin Lakes, N.J.). No enzyme controls, with hair and without hair, were included in the binding experiment to account for non-enzymatic hydrolysis of the pNPA hydrolase reagent. After the binding step, a 1.0-mL aliquot of the binding buffer was transferred to a new tube to quantitate the amount of unbound enzyme. Additional binding buffer was removed and the hair fragments were washed 4 times with 1 mL of 1% TWEEN®-20 in hydrolase buffer, followed by 2 washes with 1 mL each in hydrolase buffer. The hair fragments were then resuspended in 1 mL of hydrolase assay and the hydrolase activity that remained bound to the hair was measured. The C277S (“PAH”) variant of Thermotoga maritima perhydrolase (SEQ ID NO: 293) was used as a control for an un-targeted perhydrolase.
# [4] = pH 6.0, binding 1 min, at 10 minutes
molecule,measurement,setting,value
B1,ppm PAA,"[1]; 5% PEG-80 sorbitan laurate pH 6.0, binding 10 min, PAA at 10 minutes",958 ppm
B2,Bleaching Start,[2]; 1.0 mg/mL enzyme pH 6,9th
same,Tenacity @ max,"[2]; 1.0 mg/mL enzyme pH 6, 100 mM triacetin, 250 mM H2O2, up to 13 repeats",0.6 gf/den
B3,OD 405nm,[1]; [4],0.003
same,Peracetic acid,[1]; [4],2.60 ppm
B4,Activity in the first TWEEN®-20 wash,"[3]; hydrolase activity, 1% TWEEN®-20",20%
same,Activity retained on hair after 4 TWEEN® 20 washes,"[3]; hydrolase activity, 4 washes 1% TWEEN®-20 and 2 buffer washes",41%
same,Activity unbound,"[3]; hydrolase activity, ~20 mg hair, binding 30 min",20%
same,100% activity (hydrolase activity added to the tube),"[3]; tube containing ~20 mg of hair, not subjected to washes",125 µmol/min
